In patent US20260015426A1 (23ANDME, published 2026):

B1: H7 Fab (VH F29E/N57G/R96A) (Fab, V domains shown)
VH: EVQLVESGGGLVQPGGSLRLSCAASGFTESNYAMSWVRQAPGKGLEWVATVTEGGDYGYYLDDVKGRFTISRDNAKNSLYLQMNSLRAEDTAVYYCARDAWPYFFDYWGQGTLVTVSS
VL: DIQMTQSPSSLSASVGDRVTITCRASENIYSNLAWYQQKPGKSPKLLVYGAKNLADGVPSRFSGSGSGTDYTLTISSLQPEDFATYYCQHFWTTPRTFGGGTKVEIK
notes: Fab with 8xHis tag
B2: H8 Fab (VH F29S/E52aV/R96A) (Fab, V domains shown)
VH: EVQLVESGGGLVQPGGSLRLSCAASGFTSSNYAMSWVRQAPGKGLEWVATVTVGGDYNYYLDDVKGRFTISRDNAKNSLYLQMNSLRAEDTAVYYCARDAWPYFFDYWGQGTLVTVSS
VL: DIQMTQSPSSLSASVGDRVTITCRASENIYSNLAWYQQKPGKSPKLLVYGAKNLADGVPSRFSGSGSGTDYTLTISSLQPEDFATYYCQHFWTTPRTFGGGTKVEIK
notes: Fab with 8xHis tag
B3: H5 Fab (VH V51S/G54H) (Fab, V domains shown)
VH: EVQLVESGGGLVQPGGSLRLSCAASGFTFSNYAMSWVRQAPGKGLEWVATSTEGHDYNYYLDDVKGRFTISRDNAKNSLYLQMNSLRAEDTAVYYCARDRWPYFFDYWGQGTLVTVSS
VL: DIQMTQSPSSLSASVGDRVTITCRASENIYSNLAWYQQKPGKSPKLLVYGAKNLADGVPSRFSGSGSGTDYTLTISSLQPEDFATYYCQHFWTTPRTFGGGTKVEIK
notes: Fab with 8xHis tag
B4: K11 Fab (VL A51R/K52G) (Fab, V domains shown)
VH: EVQLVESGGGLVQPGGSLRLSCAASGFTFSNYAMSWVRQAPGKGLEWVATVTEGGDYNYYLDDVKGRFTISRDNAKNSLYLQMNSLRAEDTAVYYCARDRWPYFFDYWGQGTLVTVSS
VL: DIQMTQSPSSLSASVGDRVTITCRASENIYSNLAWYQQKPGKSPKLLVYGRGNLADGVPSRFSGSGSGTDYTLTISSLQPEDFATYYCQHFWTTPRTFGGGTKVEIK
notes: Fab with 8xHis tag
B5: K18 Fab (VL A51Y/L33G) (Fab, V domains shown)
VH: EVQLVESGGGLVQPGGSLRLSCAASGFTFSNYAMSWVRQAPGKGLEWVATVTEGGDYNYYLDDVKGRFTISRDNAKNSLYLQMNSLRAEDTAVYYCARDRWPYFFDYWGQGTLVTVSS
VL: DIQMTQSPSSLSASVGDRVTITCRASENIYSNGAWYQQKPGKSPKLLVYGYKNLADGVPSRFSGSGSGTDYTLTISSLQPEDFATYYCQHFWTTPRTFGGGTKVEIK
notes: Fab with 8xHis tag
B6: K6 Fab (VL Y30W/W92F) (Fab, V domains shown)
VH: EVQLVESGGGLVQPGGSLRLSCAASGFTFSNYAMSWVRQAPGKGLEWVATVTEGGDYNYYLDDVKGRFTISRDNAKNSLYLQMNSLRAEDTAVYYCARDRWPYFFDYWGQGTLVTVSS
VL: DIQMTQSPSSLSASVGDRVTITCRASENIWSNLAWYQQKPGKSPKLLVYGAKNLADGVPSRFSGSGSGTDYTLTISSLQPEDFATYYCQHFFTTPRTFGGGTKVEIK
notes: Fab with 8xHis tag
B7: K5 Fab (VL Y30W/W92L) (Fab, V domains shown)
VH: EVQLVESGGGLVQPGGSLRLSCAASGFTFSNYAMSWVRQAPGKGLEWVATVTEGGDYNYYLDDVKGRFTISRDNAKNSLYLQMNSLRAEDTAVYYCARDRWPYFFDYWGQGTLVTVSS
VL: DIQMTQSPSSLSASVGDRVTITCRASENIWSNLAWYQQKPGKSPKLLVYGAKNLADGVPSRFSGSGSGTDYTLTISSLQPEDFATYYCQHFLTTPRTFGGGTKVEIK
notes: Fab with 8xHis tag
B8: K10 IgG (VL-A51Y) (antibody, V domains shown)
VH: EVQLVESGGGLVQPGGSLRLSCAASGFTFSNYAMSWVRQAPGKGLEWVATVTEGGDYNYYLDDVKGRFTISRDNAKNSLYLQMNSLRAEDTAVYYCARDRWPYFFDYWGQGTLVTVSS
VL: DIQMTQSPSSLSASVGDRVTITCRASENIYSNLAWYQQKPGKSPKLLVYGYKNLADGVPSRFSGSGSGTDYTLTISSLQPEDFATYYCQHFWTTPRTFGGGTKVEIK
B9: K10/H3 IgG (VL-A51Y, VH-V51S) (antibody, V domains shown)
VH: EVQLVESGGGLVQPGGSLRLSCAASGFTFSNYAMSWVRQAPGKGLEWVATSTEGGDYNYYLDDVKGRFTISRDNAKNSLYLQMNSLRAEDTAVYYCARDRWPYFFDYWGQGTLVTVSS
VL: DIQMTQSPSSLSASVGDRVTITCRASENIYSNLAWYQQKPGKSPKLLVYGYKNLADGVPSRFSGSGSGTDYTLTISSLQPEDFATYYCQHFWTTPRTFGGGTKVEIK
B10: K10/H2 IgG (VL-A51Y, VH-R96D) (antibody, V domains shown)
VH: EVQLVESGGGLVQPGGSLRLSCAASGFTFSNYAMSWVRQAPGKGLEWVATVTEGGDYNYYLDDVKGRFTISRDNAKNSLYLQMNSLRAEDTAVYYCARDDWPYFFDYWGQGTLVTVSS
VL: DIQMTQSPSSLSASVGDRVTITCRASENIYSNLAWYQQKPGKSPKLLVYGYKNLADGVPSRFSGSGSGTDYTLTISSLQPEDFATYYCQHFWTTPRTFGGGTKVEIK
B11: K13 IgG (VL-A51Y/W92I) (antibody, V domains shown)
VH: EVQLVESGGGLVQPGGSLRLSCAASGFTFSNYAMSWVRQAPGKGLEWVATVTEGGDYNYYLDDVKGRFTISRDNAKNSLYLQMNSLRAEDTAVYYCARDRWPYFFDYWGQGTLVTVSS
VL: DIQMTQSPSSLSASVGDRVTITCRASENIYSNLAWYQQKPGKSPKLLVYGYKNLADGVPSRFSGSGSGTDYTLTISSLQPEDFATYYCQHFITTPRTFGGGTKVEIK
B12: Parent IgG Ab (full-length IgG of h11C5_C59Y/A43S) (antibody, V domains shown)
VH: EVQLVESGGGLVQPGGSLRLSCAASGFTFSNYAMSWVRQAPGKGLEWVATVTEGGDYNYYLDDVKGRFTISRDNAKNSLYLQMNSLRAEDTAVYYCARDRWPYFFDYWGQGTLVTVSS
VL: DIQMTQSPSSLSASVGDRVTITCRASENIYSNLAWYQQKPGKSPKLLVYGAKNLADGVPSRFSGSGSGTDYTLTISSLQPEDFATYYCQHFWTTPRTFGGGTKVEIK
B13: K17 IgG (VL-A51Y/W92K) (antibody, V domains shown)
VH: EVQLVESGGGLVQPGGSLRLSCAASGFTFSNYAMSWVRQAPGKGLEWVATVTEGGDYNYYLDDVKGRFTISRDNAKNSLYLQMNSLRAEDTAVYYCARDRWPYFFDYWGQGTLVTVSS
VL: DIQMTQSPSSLSASVGDRVTITCRASENIYSNLAWYQQKPGKSPKLLVYGYKNLADGVPSRFSGSGSGTDYTLTISSLQPEDFATYYCQHFKTTPRTFGGGTKVEIK

molecular target: T1, hu-M-IL1RAP construct, positions S21-T367 (extracellular domain of the membrane form of human IL1RAP) (human, UniProt Q9NPH3 21-367); experiment: SPR, Fab analyte, 37 C
T1 construct: Biotinylated when captured on the Biacore chip
T1 sequence: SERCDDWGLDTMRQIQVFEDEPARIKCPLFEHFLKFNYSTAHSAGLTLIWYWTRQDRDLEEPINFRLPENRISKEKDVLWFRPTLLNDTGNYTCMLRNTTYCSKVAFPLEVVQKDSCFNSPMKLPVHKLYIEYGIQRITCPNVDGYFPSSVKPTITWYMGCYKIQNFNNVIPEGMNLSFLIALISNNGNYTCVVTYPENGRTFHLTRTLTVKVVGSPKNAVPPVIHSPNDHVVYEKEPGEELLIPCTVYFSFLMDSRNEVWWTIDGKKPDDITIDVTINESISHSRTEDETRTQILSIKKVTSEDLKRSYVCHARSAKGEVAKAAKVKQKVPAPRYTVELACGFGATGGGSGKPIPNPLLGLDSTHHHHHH

In order of falling Kd:
1. B2  0.17 nM
2. B1  0.0998 nM

In order of falling koff:
1. B2  0.000899 s⁻¹
2. B1  0.000511 s⁻¹

In order of rising kon:
1. B1  5.13e+06 M⁻¹ s⁻¹
2. B2  5.27e+06 M⁻¹ s⁻¹

molecular target: T1, hu-M-IL1RAP construct, positions …; experiment: SPR, Fab analyte, 25 C
Procedure: Surface plasmon resonance (SPR) analysis was used to determine binding affinity for hu-M-IL1RAP of the purified Fabs containing the selected single, double, and triple mutations in either the VL or VH regions using a BIACORE™ 8K instrument. […] For kinetics measurements, 5 nM biotinylated hu-M-IL1RAP was captured at 10 μL/min to achieve ˜50 response units in the second flow cell (FC2). FC1 was kept as a reference. […] The sensorgrams were recorded and subjected to reference and buffer subtraction before data analysis with the BIACORE® 8K Evaluation Software (version 1.1.1.7442). Association rates (kₒₙ) and dissociation rates (koff) were calculated using a simple one-to-one Langmuir binding model. The equilibrium dissociation constant (KD) was calculated as the ratio of koff/kₒₙ.

In order of falling Kd:
1. B7  0.0524 nM
2. B3  0.05 nM
3. B4  0.0212 nM
4. B5  0.0189 nM
5. B6  0.0147 nM

In order of falling koff:
1. B7  0.000268 s⁻¹
2. B3  0.000235 s⁻¹
3. B5  0.000123 s⁻¹
4. B4  0.000102 s⁻¹
5. B6  6.25e-05 s⁻¹

In order of falling kon:
1. B5  6.52e+06 M⁻¹ s⁻¹
2. B7  5.11e+06 M⁻¹ s⁻¹
3. B4  4.83e+06 M⁻¹ s⁻¹
4. B3  4.71e+06 M⁻¹ s⁻¹
5. B6  4.25e+06 M⁻¹ s⁻¹

molecular target: T2, human IL1RAP (hu-IL1RAP) on human cells (human, UniProt Q9NPH3 21-570); experiment: cell-based or functional assay
T2 sequence: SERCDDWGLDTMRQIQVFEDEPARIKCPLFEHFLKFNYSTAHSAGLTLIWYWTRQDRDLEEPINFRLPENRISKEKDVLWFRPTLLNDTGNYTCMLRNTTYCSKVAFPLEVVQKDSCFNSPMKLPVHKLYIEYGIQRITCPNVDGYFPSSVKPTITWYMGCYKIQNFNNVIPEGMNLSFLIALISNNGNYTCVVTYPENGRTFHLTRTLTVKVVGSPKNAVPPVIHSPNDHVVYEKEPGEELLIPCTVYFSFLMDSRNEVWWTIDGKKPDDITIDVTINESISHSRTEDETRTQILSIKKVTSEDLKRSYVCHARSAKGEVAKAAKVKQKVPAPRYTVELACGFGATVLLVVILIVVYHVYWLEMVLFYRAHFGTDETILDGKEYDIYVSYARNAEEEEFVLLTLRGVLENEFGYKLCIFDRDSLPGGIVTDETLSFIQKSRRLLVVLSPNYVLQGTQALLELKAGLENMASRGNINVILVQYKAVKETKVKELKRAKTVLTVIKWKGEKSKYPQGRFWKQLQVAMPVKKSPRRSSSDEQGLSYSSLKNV

In order of rising “HEK-Blue, IL-1β, % inhibition at 100 nM (IgG)” value:
1. B12  99%
2. B8  100%
3. B9  100%
4. B10  100%
5. B11  100%
6. B13  100%

In order of falling “HEK-Blue, IL-1β, IC50 (IgG)” value:
1. B13  0.468 nM
2. B12  0.363 nM
3. B11  0.332 nM
4. B10  0.285 nM
5. B8  0.23 nM
6. B9  0.177 nM

In order of falling “HEK-Blue, IL-33, % inhibition at 100 nM (IgG)” value:
1. B8  100%
2. B10  100%
3. B11  100%
4. B9  99%
5. B12  99%
6. B13  99%

In order of falling “HEK-Blue, IL-33, IC50 (IgG)” value:
1. B13  2.74 nM
2. B12  2.04 nM
3. B11  1.77 nM
4. B8  1.37 nM
5. B10  1.06 nM
6. B9  0.354 nM

In order of rising “HEK-Blue, IL-36α, % inhibition at 100 nM (IgG)” value:
1. B12  89%
2. B8  100%
3. B9  100%
4. B10  100%
5. B11  100%
6. B13  100%

In order of rising “HEK-Blue, IL-36α, IC50 (IgG)” value:
1. B8  0.247 nM
2. B9  0.28 nM
3. B11  0.303 nM
4. B10  0.34 nM
5. B12  0.34 nM
6. B13  0.495 nM
